Experimental data taken from the supplement of paper PMC10065799, “High-throughput profiling of sequence recognition by tyrosine kinases and SH2 domains using bacterial peptide display” (eLife, 2023).

Assays:
AncSZ = test: phosphorylation enrichment, bacterial display (enrichment ratio); higher = better substrate or ligand; peptides without Tyr show the background
EPHB1 = EPHB1 (UniProt P54762); test: as above
EPHB2 = EPHB2 (UniProt P29323); test: as above
FGFR1 = FGFR1 (UniProt P11362); test: as above
FGFR3 = FGFR3 (UniProt P22607); test: as above
Fer (mouse) = test: as above
Fes = Fes (UniProt P07332); test: as above
Fyn = Fyn (UniProt P06241); test: as above
Hck = Hck (UniProt P08631); test: as above
Jak2 = Jak2 (UniProt O60674); test: as above
MERTK = MERTK (UniProt Q12866); test: as above
c-Abl (mouse) = test: as above
c-Src = test: as above
Grb2 SH2 = Grb2 SH2 (UniProt P62993); test: SH2 binding enrichment of the phosphorylated peptide, bacterial display (enrichment ratio); higher = better substrate or ligand; peptides without Tyr show the background
SHP2-C SH2 = test: as above
c-Src SH2 = test: as above
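For SH2 binding enrichment of the phosphorylated peptide, bacterial display in this document: peptide library displayed on the E. coli surface as eCPX fusions, selected cells deep-sequenced, score is each peptide's frequency after selection divided by its frequency in the input.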
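For phosphorylation enrichment, bacterial display in this document: 11-residue human phosphosite peptides and single-mutation variants displayed on the E. coli surface, counted by deep sequencing, each peptide's frequency after selection divided by its frequency in the unselected input library; frequency after pTyr selection over input frequency; kinase dosed for 20-30% of maximal phosphorylation in three min.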

Jak2, sequence (O60674 whole entry, looked up): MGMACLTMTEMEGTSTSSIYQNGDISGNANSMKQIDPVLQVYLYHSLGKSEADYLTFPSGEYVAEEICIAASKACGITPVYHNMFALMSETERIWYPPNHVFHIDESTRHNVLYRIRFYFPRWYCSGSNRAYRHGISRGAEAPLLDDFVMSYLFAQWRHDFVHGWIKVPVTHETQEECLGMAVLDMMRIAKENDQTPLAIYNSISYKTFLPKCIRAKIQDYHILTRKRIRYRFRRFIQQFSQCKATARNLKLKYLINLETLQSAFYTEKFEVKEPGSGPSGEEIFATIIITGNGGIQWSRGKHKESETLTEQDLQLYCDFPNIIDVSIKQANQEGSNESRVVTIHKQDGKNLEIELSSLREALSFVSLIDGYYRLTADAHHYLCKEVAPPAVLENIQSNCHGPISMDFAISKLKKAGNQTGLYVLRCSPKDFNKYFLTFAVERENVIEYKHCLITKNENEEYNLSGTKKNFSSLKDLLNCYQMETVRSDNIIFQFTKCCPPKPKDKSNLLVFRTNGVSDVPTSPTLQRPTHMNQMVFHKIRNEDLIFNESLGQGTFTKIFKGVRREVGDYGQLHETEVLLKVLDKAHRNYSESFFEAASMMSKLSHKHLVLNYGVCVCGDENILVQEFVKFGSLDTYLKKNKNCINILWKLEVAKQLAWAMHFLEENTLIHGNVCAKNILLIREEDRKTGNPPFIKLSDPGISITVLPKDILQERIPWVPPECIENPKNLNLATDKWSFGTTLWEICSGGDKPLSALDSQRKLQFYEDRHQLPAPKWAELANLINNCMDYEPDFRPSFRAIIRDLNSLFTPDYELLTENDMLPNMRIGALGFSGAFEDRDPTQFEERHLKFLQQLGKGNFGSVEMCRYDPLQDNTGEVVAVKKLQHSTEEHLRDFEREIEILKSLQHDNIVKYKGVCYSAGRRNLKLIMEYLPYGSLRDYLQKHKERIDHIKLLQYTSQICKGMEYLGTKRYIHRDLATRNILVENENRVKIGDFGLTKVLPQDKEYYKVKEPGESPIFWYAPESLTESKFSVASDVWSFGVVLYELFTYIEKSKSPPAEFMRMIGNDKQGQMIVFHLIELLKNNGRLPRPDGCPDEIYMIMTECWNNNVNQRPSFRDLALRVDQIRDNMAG
Fyn, sequence (P06241 whole entry, looked up): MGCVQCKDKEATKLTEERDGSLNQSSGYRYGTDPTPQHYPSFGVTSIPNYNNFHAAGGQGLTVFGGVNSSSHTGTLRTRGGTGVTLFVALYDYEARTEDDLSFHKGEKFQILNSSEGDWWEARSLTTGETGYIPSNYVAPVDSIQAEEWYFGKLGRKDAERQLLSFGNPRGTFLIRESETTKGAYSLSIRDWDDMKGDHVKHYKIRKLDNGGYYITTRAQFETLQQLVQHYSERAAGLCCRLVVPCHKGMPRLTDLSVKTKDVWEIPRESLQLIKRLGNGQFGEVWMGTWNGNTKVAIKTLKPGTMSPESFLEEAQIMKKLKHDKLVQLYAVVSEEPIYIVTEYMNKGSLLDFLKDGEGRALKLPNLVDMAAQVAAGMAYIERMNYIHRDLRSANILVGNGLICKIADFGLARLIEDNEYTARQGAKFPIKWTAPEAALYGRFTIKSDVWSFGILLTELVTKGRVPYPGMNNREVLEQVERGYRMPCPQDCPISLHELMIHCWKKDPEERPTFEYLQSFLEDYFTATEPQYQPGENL
Fes, sequence (P07332 whole entry, looked up): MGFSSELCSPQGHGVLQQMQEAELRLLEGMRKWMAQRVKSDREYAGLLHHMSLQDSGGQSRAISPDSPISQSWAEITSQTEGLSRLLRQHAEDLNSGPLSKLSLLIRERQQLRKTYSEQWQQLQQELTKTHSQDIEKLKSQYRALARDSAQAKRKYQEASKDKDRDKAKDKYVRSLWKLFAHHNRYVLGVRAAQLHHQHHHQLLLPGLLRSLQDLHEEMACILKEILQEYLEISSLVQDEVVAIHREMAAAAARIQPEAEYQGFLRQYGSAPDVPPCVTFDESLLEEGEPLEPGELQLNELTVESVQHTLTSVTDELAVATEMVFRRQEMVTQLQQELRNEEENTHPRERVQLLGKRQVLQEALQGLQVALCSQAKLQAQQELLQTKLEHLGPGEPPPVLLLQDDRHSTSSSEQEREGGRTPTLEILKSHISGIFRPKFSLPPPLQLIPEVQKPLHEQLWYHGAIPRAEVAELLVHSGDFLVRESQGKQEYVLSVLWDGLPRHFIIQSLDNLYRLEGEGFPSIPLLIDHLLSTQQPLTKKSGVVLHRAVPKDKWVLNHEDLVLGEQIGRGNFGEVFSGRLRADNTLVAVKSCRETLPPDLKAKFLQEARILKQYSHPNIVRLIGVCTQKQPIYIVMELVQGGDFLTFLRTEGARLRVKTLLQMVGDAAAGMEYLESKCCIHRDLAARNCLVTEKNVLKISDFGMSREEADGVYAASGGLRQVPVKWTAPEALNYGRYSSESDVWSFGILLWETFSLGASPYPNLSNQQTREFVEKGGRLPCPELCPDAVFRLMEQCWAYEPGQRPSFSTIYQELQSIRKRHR
FGFR1, sequence (P11362 whole entry, looked up): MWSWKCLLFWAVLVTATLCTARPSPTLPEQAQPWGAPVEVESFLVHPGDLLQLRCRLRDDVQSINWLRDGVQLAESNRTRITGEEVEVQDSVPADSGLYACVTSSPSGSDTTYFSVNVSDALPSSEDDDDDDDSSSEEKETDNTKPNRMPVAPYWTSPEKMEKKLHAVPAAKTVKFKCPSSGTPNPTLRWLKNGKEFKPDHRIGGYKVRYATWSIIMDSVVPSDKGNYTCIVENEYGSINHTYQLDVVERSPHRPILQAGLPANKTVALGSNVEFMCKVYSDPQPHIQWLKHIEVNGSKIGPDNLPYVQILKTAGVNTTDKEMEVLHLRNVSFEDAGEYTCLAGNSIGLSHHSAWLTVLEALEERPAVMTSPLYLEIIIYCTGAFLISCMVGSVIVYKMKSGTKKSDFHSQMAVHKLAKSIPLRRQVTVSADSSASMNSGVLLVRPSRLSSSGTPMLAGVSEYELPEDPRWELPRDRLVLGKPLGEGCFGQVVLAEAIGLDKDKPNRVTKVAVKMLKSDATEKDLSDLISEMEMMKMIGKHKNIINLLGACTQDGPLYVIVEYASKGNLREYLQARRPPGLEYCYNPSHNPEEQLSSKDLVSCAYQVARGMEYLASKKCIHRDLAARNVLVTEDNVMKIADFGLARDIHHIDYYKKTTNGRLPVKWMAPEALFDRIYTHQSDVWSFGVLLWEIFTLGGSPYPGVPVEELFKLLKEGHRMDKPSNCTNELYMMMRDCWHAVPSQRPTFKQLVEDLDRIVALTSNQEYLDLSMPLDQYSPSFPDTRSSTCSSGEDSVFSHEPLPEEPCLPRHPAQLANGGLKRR
EPHB1, sequence (P54762 whole entry, looked up): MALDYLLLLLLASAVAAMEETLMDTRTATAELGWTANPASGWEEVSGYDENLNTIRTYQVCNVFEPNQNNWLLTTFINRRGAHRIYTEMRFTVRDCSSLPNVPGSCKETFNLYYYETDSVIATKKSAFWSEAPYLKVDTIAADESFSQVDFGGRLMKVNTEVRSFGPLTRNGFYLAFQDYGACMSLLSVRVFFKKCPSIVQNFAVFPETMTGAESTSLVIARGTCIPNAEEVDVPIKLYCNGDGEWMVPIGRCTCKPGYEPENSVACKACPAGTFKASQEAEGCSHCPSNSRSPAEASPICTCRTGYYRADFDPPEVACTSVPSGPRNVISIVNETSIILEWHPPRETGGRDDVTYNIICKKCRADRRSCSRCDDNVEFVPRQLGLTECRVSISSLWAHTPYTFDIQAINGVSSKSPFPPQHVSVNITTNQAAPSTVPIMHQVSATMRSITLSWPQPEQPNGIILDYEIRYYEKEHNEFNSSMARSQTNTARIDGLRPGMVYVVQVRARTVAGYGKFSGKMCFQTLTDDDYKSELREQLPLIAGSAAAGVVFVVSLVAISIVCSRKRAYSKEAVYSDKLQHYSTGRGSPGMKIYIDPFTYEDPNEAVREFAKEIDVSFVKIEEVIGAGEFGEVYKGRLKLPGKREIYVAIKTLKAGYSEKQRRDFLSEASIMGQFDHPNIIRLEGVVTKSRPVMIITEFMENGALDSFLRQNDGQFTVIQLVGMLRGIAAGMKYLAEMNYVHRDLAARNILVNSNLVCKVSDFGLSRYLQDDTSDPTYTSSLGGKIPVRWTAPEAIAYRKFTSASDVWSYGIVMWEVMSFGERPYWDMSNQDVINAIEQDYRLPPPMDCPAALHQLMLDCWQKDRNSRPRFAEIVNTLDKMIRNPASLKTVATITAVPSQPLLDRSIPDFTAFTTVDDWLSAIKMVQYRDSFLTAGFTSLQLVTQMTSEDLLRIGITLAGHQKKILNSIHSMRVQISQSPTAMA
Grb2 SH2, sequence (P62993 whole entry, looked up): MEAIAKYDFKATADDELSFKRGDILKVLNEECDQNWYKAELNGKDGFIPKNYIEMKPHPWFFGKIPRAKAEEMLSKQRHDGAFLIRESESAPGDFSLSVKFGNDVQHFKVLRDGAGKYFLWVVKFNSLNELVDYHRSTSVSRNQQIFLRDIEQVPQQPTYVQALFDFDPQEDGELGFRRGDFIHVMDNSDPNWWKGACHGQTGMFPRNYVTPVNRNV
Hck, sequence (P08631 whole entry, looked up): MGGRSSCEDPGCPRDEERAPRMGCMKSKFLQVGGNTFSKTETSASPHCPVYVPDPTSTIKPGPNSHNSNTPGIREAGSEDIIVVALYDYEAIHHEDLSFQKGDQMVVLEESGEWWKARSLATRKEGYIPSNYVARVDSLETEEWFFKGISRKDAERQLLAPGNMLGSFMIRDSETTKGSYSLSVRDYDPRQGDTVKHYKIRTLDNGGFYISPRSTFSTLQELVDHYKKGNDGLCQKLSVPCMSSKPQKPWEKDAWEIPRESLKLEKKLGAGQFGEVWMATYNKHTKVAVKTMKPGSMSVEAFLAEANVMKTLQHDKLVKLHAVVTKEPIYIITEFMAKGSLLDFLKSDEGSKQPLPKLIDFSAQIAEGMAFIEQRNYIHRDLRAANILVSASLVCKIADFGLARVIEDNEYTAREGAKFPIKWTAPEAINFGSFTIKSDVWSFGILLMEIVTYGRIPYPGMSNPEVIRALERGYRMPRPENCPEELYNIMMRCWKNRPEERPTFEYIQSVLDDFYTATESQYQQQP

| Sequence | phosphorylation enrichment (AncSZ) | phosphorylation enrichment (EPHB1) | phosphorylation enrichment (EPHB2) | phosphorylation enrichment (FGFR1) | phosphorylation enrichment (FGFR3) | phosphorylation enrichment (Fer (mouse)) | phosphorylation enrichment (Fes) | phosphorylation enrichment (Fyn) | phosphorylation enrichment (Hck) | phosphorylation enrichment (Jak2) | phosphorylation enrichment (MERTK) | phosphorylation enrichment (c-Abl (mouse)) | phosphorylation enrichment (c-Src) | SH2 binding enrichment (Grb2 SH2) | SH2 binding enrichment (SHP2-C SH2) | SH2 binding enrichment (c-Src SH2) |
| --- | --- | --- | --- | --- | --- | --- | --- | --- | --- | --- | --- | --- | --- | --- | --- | --- |
| HRGHLYLAIEF [TEK_Y899_Y897H_YF] | 3.67 | 1.78 | 1.67 | 1.41 | 1.79 | 1.38 | 8.12 | 1.49 | 1.5 | 6.33 | 1.64 | 9.68 | 2.63 | 0.645 | 0.722 | 0.571 |
| HSDFQYSQRSQ [PKP2_Y168_YF] | 0.997 | 0.752 | 0.782 | 0.931 | 0.608 | 0.733 | 1.02 | 0.844 | 0.718 | 0.952 | 0.602 | 0.942 | 0.747 | 0.99 | 0.832 | 0.581 |
| HSQEDYFECFQ [ZIM2_Y411] | 3.08 | 2.03 | 1.2 | 10.2 | 8.51 | 0.614 | 1.82 | 0.669 | 0.623 | 1.25 | 0.624 | 0.902 | 0.79 | 0.639 | 0.6 | 0.531 |
| HSREDYFECFQ [ZIM2_Y411_Q408R] | 2.12 | 1.83 | 1.19 | 9.83 | 6.79 | 0.811 | 1.64 | 0.598 | 0.907 | 1.58 | 0.721 | 1.28 | 0.91 | 0.786 | 0.766 | 0.557 |
| HTLIKYTDGDQ [PUS7L_Y94] | 1.41 | 0.819 | 0.982 | 1.33 | 1.14 | 0.64 | 1.76 | 1.89 | 1.01 | 1.75 | 1.16 | 1.35 | 1.09 | 0.914 | 0.606 | 0.464 |
| HVPEEYKPKQG [SAXO2_Y37] | 0.827 | 0.493 | 0.434 | 0.366 | 0.519 | 0.386 | 1.17 | 0.449 | 0.62 | 0.867 | 0.423 | 0.943 | 0.685 | 0.956 | 0.674 | 0.512 |
| IATAIYSGDKI [UGGT2_Y823] | 0.543 | 0.434 | 0.432 | 0.421 | 0.482 | 0.396 | 0.671 | 2.11 | 2.38 | 0.6 | 0.455 | 0.422 | 2.69 | 0.796 | 0.674 | 0.393 |
| IATTIYSGDKI [UGGT2_Y823_A821T] | 0.638 | 0.576 | 0.557 | 0.57 | 0.493 | 0.41 | 0.752 | 0.591 | 0.791 | 0.701 | 0.507 | 0.778 | 0.748 | 0.893 | 0.695 | 0.516 |
| IDAVCYFRMEN [NPHS2_Y194_I192V_YF] | 1.79 | 0.788 | 0.763 | 0.986 | 1.34 | 0.641 | 1.99 | 0.653 | 0.903 | 2.74 | 0.715 | 1.5 | 0.873 | 0.764 | 0.607 | 0.545 |
| IDSTPYGQWFE [RPS8_Y109_R110G_YF] | 1.27 | 0.621 | 0.722 | 0.713 | 0.89 | 0.712 | 1.18 | 3.54 | 1.52 | 0.998 | 0.473 | 0.657 | 3.56 | 0.821 | 0.697 | 0.561 |
| IEEGTYGVAYR [CDK11B_Y449_V452A] | 1.24 | 0.686 | 2.44 | 0.494 | 0.635 | 5.71 | 1 | 7.54 | 5.91 | 0.928 | 2.22 | 0.836 | 5.77 | 0.681 | 0.662 | 0.471 |
| IEEGTYGVVFR [CDK11B_Y449_YF] | 1.41 | 2.76 | 7.66 | 0.548 | 0.961 | 6.28 | 1.48 | 8.86 | 7.46 | 1.38 | 3.13 | 1.2 | 5.94 | 0.722 | 0.467 | 0.349 |
| IEEGTYGVVYR [CDK11B_Y449] | 1.33 | 4.1 | 10.8 | 0.509 | 0.702 | 7.46 | 1.01 | 8.95 | 7.29 | 0.902 | 4 | 1.3 | 5.65 | 0.834 | 0.668 | 0.451 |
| IETGRYEILTE | 1.07 | 0.595 | 0.762 | 0.491 | 0.632 | 0.464 | 1 | 0.488 | 0.487 | 0.951 | 0.533 | 0.854 | 0.479 | 0.883 | 0.697 | 21.6 |
